US20260274955A1 (JANUX THERAPEUTICS, published 2026)

B1: Phage-106 (peptide)
peptide: YCDGHSREYIAKCL
B2: Phage-86 (peptide)
peptide: YCDGHLPEYREKCF
B3: Phage-85 (peptide)
peptide: YCEGHSWANLGKCL
B4: Phage-103 (peptide)
peptide: YCEGHSSEYMLKCL
B5: Phage-136 (peptide)
peptide: YCEGHLPEYMQKCM
B6: Phage-101 (peptide)
peptide: YCDGHAPQYMRKCL
B7: Phage-139 (peptide)
peptide: YCDGHSMEYMSKCL
B8: Phage-78 (peptide)
peptide: YCDGHLPEYMMKCL
B9: Phage-133 (peptide)
peptide: YCDGHLPLYLAKCL
B10: Phage-81 (peptide)
peptide: YCEGHLPQYMAKCL
B11: Phage-108 (peptide)
peptide: YCDGHVPEYMAKCL
B12: Phage-113 (peptide)
peptide: YCDGHSSEYMAKCL
B13: Phage-104 (peptide)
peptide: YCEGHAAEYMEKCL
B14: Phage-137 (peptide)
peptide: YCDGHSAEYMAKCL
B15: Phage-129 (peptide)
peptide: YCEGHAWEYMAKCL
B16: Phage-128 (peptide)
peptide: YCAGHLPEYMEKCL
B17: Phage-138 (peptide)
peptide: YCEGHSPEYMYKCL
B18: Phage-84 (peptide)
peptide: YCDGHLPIYMSKCL
B19: Phage-87 (peptide)
peptide: YCEGHLPEYMLKCL
B20: Phage-111 (peptide)
peptide: YCDGHSQEYMMKCL
B21: Phage-112 (peptide)
peptide: YCSGHLPQYMQKCL
B22: Phage-82 (peptide)
peptide: YCDGHSPLYMWKCL
B23: Phage-130 (peptide)
peptide: YCQGHLPEYMNKCL
B24: Phage-131 (peptide)
peptide: YCDGHSQEYMAKCL
B25: Phage-110 (peptide)
peptide: YCQGHAPEYMAKCL
B26: Phage-109 (peptide)
peptide: YCDGHLPMYMMKCL
B27: Phage-134 (peptide)
peptide: YCDGHLPQYMNKCL
B28: Phage-83 (peptide)
peptide: YCDGHLPMYMQKCL
B29: Phage-107 (peptide)
peptide: YCDGHLPQYMWKCL
B30: Phage-80 (peptide)
peptide: YCQGHLPMYMEKCL
B31: Phage-77 (peptide)
peptide: YCQGHLPMYMAKCL
B32: Phage-140 (peptide)
peptide: YCEGHLPMYMDKCL
B33: Phage-132 (peptide)
peptide: YCQGHLPIYMEKCL
B34: Phage-105 (peptide)
peptide: YCEGHSAQYMSKCL
B35: Phage-102 (peptide)
peptide: YCDGHAKEYMWKCL
B36: Phage-1014 (peptide)
peptide: YCSAGAQWPWPICL
B37: Phage-1031 (peptide)
peptide: TCSAGAMYPWPWCV
B38: Phage-1029 (peptide)
peptide: TCAAGASFPWPWCL
B39: Phage-1038 (peptide)
peptide: TCAAGATYPWPSCL
B40: Phage-1065 (peptide)
peptide: TCAAGATWPWPSCL
B41: Phage-1016 (peptide)
peptide: SCAAGASYSWPACF
B42: Phage-1020 (peptide)
peptide: TCAAGAHYPWPYCL
B43: Phage-1026 (peptide)
peptide: TCAAGAVWEWPMCF
B44: Phage-982 (peptide)
peptide: TCAAGAAYTWPACF
B45: Phage-1037 (peptide)
peptide: MCSAGATYPWPMCL
B46: Phage-1057 (peptide)
peptide: MCSAGATYPWPYCL
B47: Phage-981 (peptide)
peptide: WCAAVFSYTWSPCL
B48: Phage-1025 (peptide)
peptide: GCAAGAHYPWPFCL
B49: Phage-1035 (peptide)
peptide: TCAAGAAWPWPHCL
B50: Phage-983 (peptide)
peptide: TCAAGATYEWPTCL
B51: Phage-1021 (peptide)
peptide: WCAEFFNYHWPLCF
B52: Phage-1024 (peptide)
peptide: LCTAGLAYNWPTCL
B53: Phage-1019 (peptide)
peptide: MCTAGALYNWPTCL
B54: Phage-980 (peptide)
peptide: TCAAGATYEWPYCF
B55: Phage-1032 (peptide)
peptide: WCAAVFSYSWPLCL
B56: Phage-1028 (peptide)
peptide: MCAAGAMYAWPTCL
B57: Phage-1039 (peptide)
peptide: TCAAGAVWGWPLCF
B58: Phage-1027 (peptide)
peptide: TCAAGANYPWPLCL
B59: Phage-1069 (peptide)
peptide: GCAAGANYPWPLCL
B60: Phage-1023 (peptide)
peptide: SCAAGASYPWPQCL
B61: Phage-1030 (peptide)
peptide: SCAAVFPYPWPPCF
B62: Phage-986 (peptide)
peptide: PCAAGAMWPWPVCL
B63: Phage-1017 (peptide)
peptide: SCSAGFHYPWPICL
B64: Phage-1022 (peptide)
peptide: TCSAGFSLQLSICL
B65: Phage-1033 (peptide)
peptide: GCAAGFHYPWPLCL
B66: Phage-1015 (peptide)
peptide: TCAAGASYQWPLCF
B67: Phage-1018 (peptide)
peptide: LCKPGVPYQWPTCL
B68: Phage-1034 (peptide)
peptide: LCEEFFHYSWPVCL

Molecular target: Anti-CD28 Fab (SEQ ID NOs: 202, 203)
Test: phage binding ELISA on captured Fab;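 further: clonal phage supernatants added briefly to wells pre-incubated with CD28 antigen or with blocking buffer only, then washed, bound phage read by ELISA using HRP-coupled anti-M13 antibody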
Target sequence in this assay (VH, as listed by the source, chain 1 of 2): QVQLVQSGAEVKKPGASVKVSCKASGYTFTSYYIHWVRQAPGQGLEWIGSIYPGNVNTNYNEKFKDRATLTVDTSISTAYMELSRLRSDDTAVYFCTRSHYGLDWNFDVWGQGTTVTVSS
Target sequence in this assay (VL, as listed by the source, chain 2 of 2): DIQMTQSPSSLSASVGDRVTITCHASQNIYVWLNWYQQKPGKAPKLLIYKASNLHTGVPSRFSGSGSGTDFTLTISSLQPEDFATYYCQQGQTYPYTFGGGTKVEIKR
Description: Clonal phage were harvested as crude supernatants and screened via standard ELISAs. […] Prior to the addition of clonal phage, wells were incubated with blocking buffer and CD28 antigen or blocking buffer alone. Without washing or aspirating, clonal phage supernatants were then added to the wells and incubated for a short time. Wells were then washed followed by detection of bound phage using a horse radish conjugated anti-M13 antibody.

| Binder | Anti-CD28 Fab signal |
| --- | --- |
| B1 | 2.29 |
| B2 | 2.32 |
| B3 | 2.32 |
| B4 | 2.3 |
| B5 | 2.23 |
| B6 | 2.3 |
| B7 | 2.22 |
| B8 | 2.34 |
| B9 | 2.23 |
| B10 | 2.34 |
| B11 | 2.29 |
| B12 | 2.28 |
| B13 | 2.3 |
| B14 | 2.23 |
| B15 | 2.24 |
| B16 | 2.24 |
| B17 | 2.23 |
| B18 | 2.32 |

| Binder | Anti-CD28 Fab signal |
| --- | --- |
| B19 | 2.32 |
| B20 | 2.28 |
| B21 | 2.28 |
| B22 | 2.34 |
| B23 | 2.24 |
| B24 | 2.24 |
| B25 | 2.28 |
| B26 | 2.28 |
| B27 | 2.23 |
| B28 | 2.33 |
| B29 | 2.29 |
| B30 | 2.34 |
| B31 | 2.34 |
| B32 | 2.22 |
| B33 | 2.24 |
| B34 | 2.29 |
| B35 | 2.3 |

Molecular target: T1, Anti-CD28 Fab (SEQ ID NOs: 202, 203)
T1 construct: biotinylated and captured on neutravidin coated plates in the phage ELISA
Test: phage binding ELISA, Fab on plate;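 further: clonal phage supernatant ELISA, wells preincubated with CD28 antigen or blocking buffer only, then bound phage detected using HRP-linked anti-M13 antibody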
T1 sequence (VH, as listed by the source, chain 1 of 2): as the sequence (VH, as listed by the source, chain 1 of 2) above
T1 sequence (VL, as listed by the source, chain 2 of 2): as the sequence (VL, as listed by the source, chain 2 of 2) above

| Binder | Anti-CD28 Fab (SEQ ID NOs: 202, 203) signal |
| --- | --- |
| B36 | 1.79 |
| B37 | 1.75 |
| B38 | 1.75 |
| B39 | 1.73 |
| B40 | 1.61 |
| B41 | 1.79 |
| B42 | 1.77 |
| B43 | 1.76 |
| B44 | 1.96 |
| B45 | 1.73 |
| B46 | 1.64 |
| B47 | 1.96 |
| B48 | 1.76 |
| B49 | 1.73 |
| B50 | 1.96 |
| B51 | 1.77 |
| B52 | 1.77 |

| Binder | Anti-CD28 Fab (SEQ ID NOs: 202, 203) signal |
| --- | --- |
| B53 | 1.78 |
| B54 | 1.96 |
| B55 | 1.75 |
| B56 | 1.75 |
| B57 | 1.73 |
| B58 | 1.75 |
| B59 | 1.59 |
| B60 | 1.77 |
| B61 | 1.75 |
| B62 | 1.95 |
| B63 | 1.79 |
| B64 | 1.77 |
| B65 | 1.74 |
| B66 | 1.79 |
| B67 | 1.78 |
| B68 | 1.74 |
